Results published in the supplement of paper PMC9233669.
Fewer inactive variants are shown than the library holds.

Assays:
biotinyl-Ile-oxazolone = assay: self-aminoacylation, catalytic enhancement (BIO) (fold over background); higher = more active; k-Seq, kA / k0A0; sequences stand for … in GGGAAUGGAUCCACAUCUACGAAUUC…UUCACUGCAGACUUGACGAAGCUG
How it was run: (§1)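 Each biotinyl-aminoacyl-oxazolone, at 2–1250 μM, was incubated with mutagenized RNA pools (0.43 μM) carrying a 21-nt variable region. The 50 μL reactions contained HEPES/NaCl/KCl/MgCl2/CaCl2 buffer with 5% acetonitrile at pH 6.9–7.0 and ran for 90 minutes at room temperature. After streptavidin capture, RNA was measured by qPCR in triplicate and by Illumina sequencing, and catalytic enhancement was calculated as median kA over the uncatalyzed rate from a pseudo-first-order fit of per-sequence fraction reacted.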

biotinyl-Trp-oxazolone = assay: self-aminoacylation, catalytic enhancement (BWO) (fold over background); higher = more active; k-Seq, kA / k0A0; sequences stand for … in GGGAAUGGAUCCACAUCUACGAAUUC…UUCACUGCAGACUUGACGAAGCUG
How it was run: as §1

biotinyl-Phe-oxazolone = assay: self-aminoacylation, catalytic enhancement (BFO) (fold over background); higher = more active; k-Seq, kA / k0A0; sequences stand for … in GGGAAUGGAUCCACAUCUACGAAUUC…UUCACUGCAGACUUGACGAAGCUG
How it was run: as §1

biotinyl-Leu-oxazolone = assay: self-aminoacylation, catalytic enhancement (BLO) (fold over background); higher = more active; k-Seq, kA / k0A0; sequences stand for … in GGGAAUGGAUCCACAUCUACGAAUUC…UUCACUGCAGACUUGACGAAGCUG
How it was run: as §1

biotinyl-Val-oxazolone = assay: self-aminoacylation, catalytic enhancement (BVO) (fold over background); higher = more active; k-Seq, kA / k0A0; sequences stand for … in GGGAAUGGAUCCACAUCUACGAAUUC…UUCACUGCAGACUUGACGAAGCUG
How it was run: as §1

biotinyl-Met-oxazolone = assay: self-aminoacylation, catalytic enhancement (BMO) (fold over background); higher = more active; k-Seq, kA / k0A0; sequences stand for … in GGGAAUGGAUCCACAUCUACGAAUUC…UUCACUGCAGACUUGACGAAGCUG
How it was run: as §1

Sequence	self-aminoacylation (biotinyl-Ile-oxazolone)	self-aminoacylation (biotinyl-Trp-oxazolone)	self-aminoacylation (biotinyl-Phe-oxazolone)	self-aminoacylation (biotinyl-Leu-oxazolone)	self-aminoacylation (biotinyl-Val-oxazolone)	self-aminoacylation (biotinyl-Met-oxazolone)
AUUCAACUAGGUCAUCGGGUA [Fam2.2 aminoacylation ribozyme variant]	1.78	2.89	7.29	2.16	2.19	2.01
AUUCAACUAGGUCAUCGGGUC [Fam2.2 aminoacylation ribozyme variant]	1.02	1.22	1.77	1.15	0.979	1.14
AUUCAACUAGGUCAUCGGGUU [Fam2.2 aminoacylation ribozyme variant]	1.5	1.8	4.65	1.95	1.66	1.91
AUUCAACUAGGUCAUCGGUUG [Fam2.2 aminoacylation ribozyme variant]	0.952	0.843	0.677	0.889	0.963	0.933
AUUCAACUAGGUCCUCGGGUG [Fam2.2 aminoacylation ribozyme variant]	3.44	5.55	35.7	7.66	3.32	5.22
AUUCAAUUAGGUCAUCGGGUG [Fam2.2 aminoacylation ribozyme variant]	3.56	5.33	42.1	7.25	3.44	6
AUUCACAUAGGACAUCGGGUG [Fam2.2 aminoacylation ribozyme variant]	2.84	3.93	17.7	4.24	3.22	3.84
AUUCACAUAGGUCAACGGGUG [Fam2.2 aminoacylation ribozyme variant]	2.85	4.39	28.8	5.9	2.81	4.31
AUUCACAUAGGUCAUAGGGUG [Fam2.2 aminoacylation ribozyme variant]	1.55	1.66	2.85	2.3	1.54	2.17
AUUCACAUAGGUCAUCGGGCG [Fam2.2 aminoacylation ribozyme variant]	2.05	2.3	6.68	3.11	2.33	2.5
AUUCACAUAGGUCAUUGGGUG [Fam2.2 aminoacylation ribozyme variant]	2.74	4.51	29.1	5.11	3.23	4.35
AUUCACAUAGGUCUUCGGGUG [Fam2.2 aminoacylation ribozyme variant]	4.26	5.51	39.4	5.35	4.59	4.21
AUUCACAUAGGUGAUCGGGUG [Fam2.2 aminoacylation ribozyme variant]	3.05	3.79	20.5	3.56	3.14	3.4
AUUCACAUAGUUCAUCGGGUG [Fam2.2 aminoacylation ribozyme variant]	2.27	2.42	19.2	3.48	2.3	2.76
AUUCACAUGGGUCAUCGGGUG [Fam2.2 aminoacylation ribozyme variant]	5.6	8.84	70.4	11.6	5.96	9.66
AUUCACCAAAGUCAUCGGGUG [Fam2.2 aminoacylation ribozyme variant]	9.57	13.6	110	19.5	8.23	15.3
AUUCACCAAGGUCACCGGGUG [Fam2.2 aminoacylation ribozyme variant]	5.1	5.09	55.5	9.86	6.12	8.25
AUUCACCAAGGUCAUCGAGUG [Fam2.2 aminoacylation ribozyme variant]	2.27	2.57	14.4	4.52	2.23	4.1
AUUCACCAAGGUCAUCGGGCG [Fam2.2 aminoacylation ribozyme variant]	3.24	3.82	16	4.59	3.64	4.07
AUUCACCAAGGUCUUCGGGUG [Fam2.2 aminoacylation ribozyme variant]	4.41	4.45	37.2	6.3	4.41	5.94
AUUCACCCAGGUCAACGGGUG [Fam2.2 aminoacylation ribozyme variant]	1.96	3.81	19.7	4.29	2.53	3.24
AUUCACCCAGGUCAUCGGGGG [Fam2.2 aminoacylation ribozyme variant]	1.86	1.92	11.7	2.17	1.6	2.1
AUUCACCGAAGUCAUCGGGUG [Fam2.2 aminoacylation ribozyme variant]	9.89	15.1	152	23.7	9.73	17.6
AUUCACCGAGGACAUCGGGUG [Fam2.2 aminoacylation ribozyme variant]	3.59	5.74	35.9	6.02	3.78	5.56
AUUCACCGAGGUCAGCGGGUG [Fam2.2 aminoacylation ribozyme variant]	5.26	6.61	38.8	6.67	4.67	5.57
AUUCACCGAGGUCAUAGGGUG [Fam2.2 aminoacylation ribozyme variant]	1.71	2.21	7.43	3.17	1.91	2.29

Sequence	self-aminoacylation (biotinyl-Ile-oxazolone)	self-aminoacylation (biotinyl-Trp-oxazolone)	self-aminoacylation (biotinyl-Phe-oxazolone)	self-aminoacylation (biotinyl-Leu-oxazolone)	self-aminoacylation (biotinyl-Val-oxazolone)	self-aminoacylation (biotinyl-Met-oxazolone)
AUUCACCGAGGUCAUCCGGUG [Fam2.2 aminoacylation ribozyme variant]	7.31	10.1	80.2	12.4	8.04	9.07
AUUCACCGAGGUCAUCGAGUG [Fam2.2 aminoacylation ribozyme variant]	1.75	2.82	12.6	3.6	2.17	2.89
AUUCACCGAGGUCAUCGGGUA [Fam2.2 aminoacylation ribozyme variant]	3.33	4	25	3.22	3.97	2.93
AUUCACCGAGGUCAUCGGGUG [Fam2.2 aminoacylation ribozyme variant]	6.19	9.63	87	14.2	6.85	11.3
AUUCACCGAGGUCAUCGGGUU [Fam2.2 aminoacylation ribozyme variant]	2.26	2.7	9.59	3.15	2.84	2.61
AUUCACCGAGUUCAUCGGGUG [Fam2.2 aminoacylation ribozyme variant]	3.56	4.3	37.1	5.07	3.14	4.92
AUUCACCUAAGUCAUCCGGUG [Fam2.2 aminoacylation ribozyme variant]	5.54	10.3	63.4	12.2	5.61	9.71
AUUCACCUAAGUCAUCGAGUG [Fam2.2 aminoacylation ribozyme variant]	3.92	5.16	22.9	7.69	3.78	5.75
AUUCACCUAAGUCAUCGGGGG [Fam2.2 aminoacylation ribozyme variant]	1.92	2.27	10.9	2.5	1.76	2.48
AUUCACCUAAGUCAUCGGGUG [Fam2.2 aminoacylation ribozyme variant]	5.75	8.93	74.2	12.8	5.58	9.66
AUUCACCUAAGUCAUCUGGUG [Fam2.2 aminoacylation ribozyme variant]	2	2.98	16.6	3.72	1.86	2.52
AUUCACCUAAGUCAUGGGGUG [Fam2.2 aminoacylation ribozyme variant]	3.71	5.16	33.4	7.26	3.47	5.16
AUUCACCUAAGUCCUCGGGUG [Fam2.2 aminoacylation ribozyme variant]	4.5	6.98	45.8	10.1	4.11	7.52
AUUCACCUACAUCAUCGGGUG [Fam2.2 aminoacylation ribozyme variant]	2.19	3.07	22.1	3.91	2.06	3.63
AUUCACCUACGUCACCGGGUG [Fam2.2 aminoacylation ribozyme variant]	2.72	3.84	36.4	5.96	2.84	4.43
AUUCACCUACGUCAUCGGGAG [Fam2.2 aminoacylation ribozyme variant]	0.803	0.502	0.516	1.07	0.861	1.23
AUUCACCUACGUCAUCGGUUG [Fam2.2 aminoacylation ribozyme variant]	0.789	0.436	0.512	0.647	1.05	0.738
AUUCACCUAGAACAUCGGGUG [Fam2.2 aminoacylation ribozyme variant]	2.39	3.56	16.8	2.88	2.47	2.73
AUUCACCUAGACCAUCGGGUG [Fam2.2 aminoacylation ribozyme variant]	2.48	3.81	22.4	5.27	3.62	4.26
AUUCACCUAGAUCACCGGGUG [Fam2.2 aminoacylation ribozyme variant]	2.42	2.86	11.5	3.69	2.55	2.76
AUUCACCUAGAUCAUCGGGGG [Fam2.2 aminoacylation ribozyme variant]	1.79	2.13	8.71	2.08	1.91	2.29
AUUCACCUAGCUAAUCGGGUG [Fam2.2 aminoacylation ribozyme variant]	1.6	1.85	4.49	2.05	1.62	1.93
AUUCACCUAGCUCAUAGGGUG [Fam2.2 aminoacylation ribozyme variant]	1.08	0.658	1.04	1.37	1.13	1.24
AUUCACCUAGCUCAUCGGAUG [Fam2.2 aminoacylation ribozyme variant]	0.779	0.452	0.472	0.772	0.82	0.609
AUUCACCUAGGACAGCGGGUG [Fam2.2 aminoacylation ribozyme variant]	2.23	2	15.1	2.58	2.21	2.49
